Experimental findings from the supplement of paper PMC10724198 are described below.

The test system of data set [1] is Saccharomyces cerevisiae. As to the kind of experiment: protein stability index of tFT-peptide fusion (C-terminal peptide) (PSI (0-1 scale)); higher = more stable (slower turnover). The settings on record: genetic background: wild type; temperature: 30 C.
Data set [2] deals with Saccharomyces cerevisiae. The description is as above. As to the method:
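MPS profiling in S. cerevisiae of the tFT-X12 degron library: putative degron peptides plus stable controls, 12 aa, fused to the C-terminus of a sfGFP-mCherry timer. Cells are FACS-sorted into 8 mCherry/sfGFP bins and deep-sequenced. PSI runs from 0 (unstable) to 1 (stable). Backgrounds are wild type, das1Δ and doa10Δ at 30 °C, and wild type, das1Δ, cdc34-1 and cdc53-1 at 37 °C; 2-3 technical replicates each.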

The mark [3] stands for this setting: genetic background: cdc34-1, temperature: 37 C.
[4] abbreviates: genetic background: cdc53-1, temperature: 37 C.
[5] abbreviates: genetic background: das1 deletion, temperature: 30 C.
Setting [6] is: genetic background: das1 deletion, temperature: 37 C.
Setting [7] is: genetic background: doa10 deletion, temperature: 30 C.
Setting [8] is: genetic background: wild type, temperature: 30 C.
The mark [9] stands for this setting: genetic background: wild type, temperature: 37 C.

± gives the standard deviation of the averaged measurements.
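Also: PSI is a weighted mean of sequencing reads over stability bins, variants kept only with over 10 reads, mCherry proximal and sfGFP distal, peptide attached via GGGS linker.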

On to AAFLGVLCWCWG, for which the protein stability index in the data set on Saccharomyces cerevisiae [1] is 0.433 ± 0.011; in the data set with Saccharomyces cerevisiae [2] (setting [3]) it was 0.436 ± 0.039; in the data set with Saccharomyces cerevisiae [2] (setting [4]), 0.465 ± 0.0079; in the data set on Saccharomyces cerevisiae [2] (setting [5]), 0.363 ± 0.033; in the data set on Saccharomyces cerevisiae [2] (setting [6]) it was 0.486 ± 0.0051; in the data set on Saccharomyces cerevisiae [2] (setting [7]) it was 0.323 ± 0.0063. In addition, the protein stability index with Saccharomyces cerevisiae [2] (setting [8]) worked out at 0.351 ± 0.019; in the data set with Saccharomyces cerevisiae [2] (setting [9]) it was 0.4703 ± 0.00083.
For the sequence ACVRFPLVLVVF, the protein stability index with Saccharomyces cerevisiae [1] turned out to be 0.147 ± 0.014; in the data set on Saccharomyces cerevisiae [2] (setting [3]), 0.0242 ± 0.0039; with Saccharomyces cerevisiae [2] (setting [4]) it was 0.0448 ± 0.015; in the data set with Saccharomyces cerevisiae [2] (setting [5]), 0.0965 ± 0.018; with Saccharomyces cerevisiae [2] (setting [6]), 0.0904 ± 0.0059; in the data set with Saccharomyces cerevisiae [2] (setting [7]), 0.0902 ± 0.022. Also, the protein stability index in the data set on Saccharomyces cerevisiae [2] (setting [8]) was 0.0825 ± 0.029; with Saccharomyces cerevisiae [2] (setting [9]), 0.0644 ± 0.0039.
AFKRVFWALWWM: the protein stability index in the data set on Saccharomyces cerevisiae [1] is 0.36 ± 0.014; in the data set with Saccharomyces cerevisiae [2] (setting [3]), 0.367 ± 0.01; in the data set with Saccharomyces cerevisiae [2] (setting [4]) it was 0.39 ± 0.0072; in the data set on Saccharomyces cerevisiae [2] (setting [5]) it was 0.421 ± 0.03; with Saccharomyces cerevisiae [2] (setting [6]) it was 0.563 ± 0.039; in the data set with Saccharomyces cerevisiae [2] (setting [7]), 0.431 ± 0.032. In addition, the protein stability index turned out to be 0.299 ± 0.022 in the data set on Saccharomyces cerevisiae [2] (setting [8]) and 0.43827 ± 0.00033 in the data set on Saccharomyces cerevisiae [2] (setting [9]).
Take AFLFLFSITCIV: the protein stability index was 0.241 ± 0.013 in the data set with Saccharomyces cerevisiae [1]; 0.181 ± 0.011 in the data set on Saccharomyces cerevisiae [2] (setting [3]); 0.23 ± 0.0042 in the data set on Saccharomyces cerevisiae [2] (setting [4]); 0.195 ± 0.029 in the data set with Saccharomyces cerevisiae [2] (setting [5]); 0.342 ± 0.0063 in the data set with Saccharomyces cerevisiae [2] (setting [6]); 0.197 ± 0.014 with Saccharomyces cerevisiae [2] (setting [7]). The results for the protein stability index with Saccharomyces cerevisiae [2] (setting [8]) and in the data set with Saccharomyces cerevisiae [2] (setting [9]) were 0.19 ± 0.028 and 0.313 ± 0.0012, respectively.
Regarding AFPVGFLVGLVV, the protein stability index was 0.431 ± 0.0065 in the data set with Saccharomyces cerevisiae [1]; 0.4381 ± 0.0028 in the data set with Saccharomyces cerevisiae [2] (setting [3]); 0.469 ± 0.011 in the data set on Saccharomyces cerevisiae [2] (setting [4]); 0.345 ± 0.024 with Saccharomyces cerevisiae [2] (setting [5]); 0.499 ± 0.0067 with Saccharomyces cerevisiae [2] (setting [6]); 0.319 ± 0.0075 with Saccharomyces cerevisiae [2] (setting [7]). In addition, the figures for the protein stability index in the data set on Saccharomyces cerevisiae [2] (setting [8]) and in the data set with Saccharomyces cerevisiae [2] (setting [9]) were 0.348 ± 0.021 and 0.4647 ± 0.0044, respectively.
For AGCFFVVLCGFF, the protein stability index in the data set on Saccharomyces cerevisiae [1] was 0.431 ± 0.0071; with Saccharomyces cerevisiae [2] (setting [3]) it was 0.436 ± 0.018; with Saccharomyces cerevisiae [2] (setting [4]), 0.503 ± 0.04; in the data set on Saccharomyces cerevisiae [2] (setting [5]), 0.334 ± 0.035; in the data set on Saccharomyces cerevisiae [2] (setting [6]) it was 0.495 ± 0.016; with Saccharomyces cerevisiae [2] (setting [7]), 0.311 ± 0.0056. In addition, the values for the protein stability index in the data set with Saccharomyces cerevisiae [2] (setting [8]) and in the data set with Saccharomyces cerevisiae [2] (setting [9]) were 0.326 ± 0.0067 and 0.4673 ± 0.0025, respectively.
On to AIDLCIAVVGMV, for which the protein stability index stood at 0.4439 ± 0.0022 in the data set on Saccharomyces cerevisiae [1]; 0.479 ± 0.042 with Saccharomyces cerevisiae [2] (setting [3]); 0.491 ± 0.029 with Saccharomyces cerevisiae [2] (setting [4]); 0.338 ± 0.035 in the data set on Saccharomyces cerevisiae [2] (setting [5]); 0.5106 ± 0.0023 with Saccharomyces cerevisiae [2] (setting [6]); 0.311 ± 0.015 with Saccharomyces cerevisiae [2] (setting [7]). Moreover, the protein stability index in the data set on Saccharomyces cerevisiae [2] (setting [8]) came out at 0.342 ± 0.026; with Saccharomyces cerevisiae [2] (setting [9]), 0.4829 ± 0.001.
On to AITHVILLVTPL, for which the protein stability index amounted to 0.507 ± 0.04 in the data set with Saccharomyces cerevisiae [1]; 0.562 ± 0.02 in the data set with Saccharomyces cerevisiae [2] (setting [3]); 0.5803 ± 0.0043 in the data set on Saccharomyces cerevisiae [2] (setting [4]); 0.411 ± 0.025 in the data set on Saccharomyces cerevisiae [2] (setting [5]); 0.61 ± 0.059 with Saccharomyces cerevisiae [2] (setting [6]); 0.384 ± 0.0029 in the data set on Saccharomyces cerevisiae [2] (setting [7]). Also, the values for the protein stability index with Saccharomyces cerevisiae [2] (setting [8]) and in the data set on Saccharomyces cerevisiae [2] (setting [9]) were 0.417 ± 0.022 and 0.552 ± 0.0087, respectively.
Regarding ALFVGVVLLVCW, the protein stability index in the data set with Saccharomyces cerevisiae [1] was found to be 0.298 ± 0.013; with Saccharomyces cerevisiae [2] (setting [3]), 0.0857 ± 0.0098; in the data set with Saccharomyces cerevisiae [2] (setting [4]), 0.193 ± 0.023; with Saccharomyces cerevisiae [2] (setting [5]) it was 0.177 ± 0.023; with Saccharomyces cerevisiae [2] (setting [6]) it was 0.28 ± 0.0069; in the data set with Saccharomyces cerevisiae [2] (setting [7]) it was 0.154 ± 0.013. Also, the figures for the protein stability index in the data set with Saccharomyces cerevisiae [2] (setting [8]) and in the data set on Saccharomyces cerevisiae [2] (setting [9]) were 0.156 ± 0.032 and 0.24564 ± 0.00015, respectively.
As for ALHGTVRNWQRQ, the protein stability index in the data set with Saccharomyces cerevisiae [1] was found to be 0.39 ± 0.015; with Saccharomyces cerevisiae [2] (setting [3]) it was 0.673 ± 0.066; in the data set on Saccharomyces cerevisiae [2] (setting [4]) it was 0.701 ± 0.059; with Saccharomyces cerevisiae [2] (setting [5]) it was 0.63 ± 0.035; with Saccharomyces cerevisiae [2] (setting [6]), 0.696 ± 0.011; in the data set on Saccharomyces cerevisiae [2] (setting [7]), 0.191 ± 0.016. Also, the values for the protein stability index in the data set with Saccharomyces cerevisiae [2] (setting [8]) and in the data set with Saccharomyces cerevisiae [2] (setting [9]) were 0.245 ± 0.0071 and 0.535 ± 0.04, respectively.
Take ALLLLLRRFFLV: the protein stability index with Saccharomyces cerevisiae [1] was determined as 0.154 ± 0.029; with Saccharomyces cerevisiae [2] (setting [3]) it was 0.432 ± 0.034; in the data set with Saccharomyces cerevisiae [2] (setting [4]), 0.659 ± 0.029; with Saccharomyces cerevisiae [2] (setting [5]), 0.643 ± 0.014; in the data set on Saccharomyces cerevisiae [2] (setting [6]), 0.739 ± 0.013; in the data set on Saccharomyces cerevisiae [2] (setting [7]), 0.0867 ± 0.003. The protein stability index in the data set on Saccharomyces cerevisiae [2] (setting [8]) stood at 0.101 ± 0.044; with Saccharomyces cerevisiae [2] (setting [9]), 0.0903 ± 0.02.
With ALMTFTLVFTYM, the protein stability index in the data set on Saccharomyces cerevisiae [1] is 0.251 ± 0.014; in the data set on Saccharomyces cerevisiae [2] (setting [3]), 0.168 ± 0.0067; with Saccharomyces cerevisiae [2] (setting [4]), 0.296 ± 0.0055; with Saccharomyces cerevisiae [2] (setting [5]) it was 0.181 ± 0.022; in the data set with Saccharomyces cerevisiae [2] (setting [6]) it was 0.324 ± 0.02; in the data set with Saccharomyces cerevisiae [2] (setting [7]), 0.209 ± 0.026. Also, the protein stability index in the data set on Saccharomyces cerevisiae [2] (setting [8]) was found to be 0.173 ± 0.027; in the data set with Saccharomyces cerevisiae [2] (setting [9]), 0.278 ± 0.027.
ALPLRSNILSVF: the protein stability index in the data set on Saccharomyces cerevisiae [1] worked out at 0.3795 ± 0.0028; in the data set on Saccharomyces cerevisiae [2] (setting [3]), 0.446 ± 0.019; in the data set on Saccharomyces cerevisiae [2] (setting [4]) it was 0.489 ± 0.037; in the data set on Saccharomyces cerevisiae [2] (setting [5]), 0.344 ± 0.031; in the data set on Saccharomyces cerevisiae [2] (setting [6]), 0.506 ± 0.0091; with Saccharomyces cerevisiae [2] (setting [7]), 0.242 ± 0.01. Further, the protein stability index amounted to 0.283 ± 0.023 with Saccharomyces cerevisiae [2] (setting [8]) and 0.45 ± 0.011 in the data set on Saccharomyces cerevisiae [2] (setting [9]).
Consider ALWFVLISILCL, for which the protein stability index in the data set with Saccharomyces cerevisiae [1] was found to be 0.378 ± 0.007; in the data set with Saccharomyces cerevisiae [2] (setting [3]), 0.316 ± 0.016; in the data set on Saccharomyces cerevisiae [2] (setting [4]), 0.353 ± 0.026; in the data set with Saccharomyces cerevisiae [2] (setting [5]), 0.312 ± 0.024; in the data set on Saccharomyces cerevisiae [2] (setting [6]), 0.427 ± 0.03; in the data set with Saccharomyces cerevisiae [2] (setting [7]) it was 0.304 ± 0.007. Besides, the protein stability index in the data set on Saccharomyces cerevisiae [2] (setting [8]) is 0.291 ± 0.017; in the data set on Saccharomyces cerevisiae [2] (setting [9]), 0.3896 ± 0.0022.
Regarding APLPPPPASVPP, the protein stability index in the data set on Saccharomyces cerevisiae [2] (setting [3]) was 0.656 ± 0.076; in the data set with Saccharomyces cerevisiae [2] (setting [4]), 0.7014 ± 0.0041; with Saccharomyces cerevisiae [2] (setting [5]) it was 0.672 ± 0.015; with Saccharomyces cerevisiae [2] (setting [6]), 0.711 ± 0.014; with Saccharomyces cerevisiae [2] (setting [7]), 0.65 ± 0.014; with Saccharomyces cerevisiae [2] (setting [8]), 0.649 ± 0.03. In the data set with Saccharomyces cerevisiae [2] (setting [9]), this sequence gave a protein stability index of 0.691 ± 0.0089.
Regarding APPHPPPATFLS, the protein stability index with Saccharomyces cerevisiae [2] (setting [3]) came out at 0.643 ± 0.014; in the data set on Saccharomyces cerevisiae [2] (setting [4]), 0.732 ± 0.022; with Saccharomyces cerevisiae [2] (setting [5]), 0.685 ± 0.019; with Saccharomyces cerevisiae [2] (setting [6]), 0.721 ± 0.0092; in the data set with Saccharomyces cerevisiae [2] (setting [7]) it was 0.326 ± 0.032; with Saccharomyces cerevisiae [2] (setting [8]), 0.357 ± 0.026. The protein stability index in the data set on Saccharomyces cerevisiae [2] (setting [9]) turned out to be 0.574 ± 0.012.
